Test results from publication PMC6342957, “Structural consequence of the most frequently recurring cancer-associated substitution in DNA polymerase ε”.

Target: T1, Pol2CORE P301R (DNA polymerase epsilon catalytic core) (Saccharomyces cerevisiae, UniProt P21951 1-1187, P301R)
T1 sequence: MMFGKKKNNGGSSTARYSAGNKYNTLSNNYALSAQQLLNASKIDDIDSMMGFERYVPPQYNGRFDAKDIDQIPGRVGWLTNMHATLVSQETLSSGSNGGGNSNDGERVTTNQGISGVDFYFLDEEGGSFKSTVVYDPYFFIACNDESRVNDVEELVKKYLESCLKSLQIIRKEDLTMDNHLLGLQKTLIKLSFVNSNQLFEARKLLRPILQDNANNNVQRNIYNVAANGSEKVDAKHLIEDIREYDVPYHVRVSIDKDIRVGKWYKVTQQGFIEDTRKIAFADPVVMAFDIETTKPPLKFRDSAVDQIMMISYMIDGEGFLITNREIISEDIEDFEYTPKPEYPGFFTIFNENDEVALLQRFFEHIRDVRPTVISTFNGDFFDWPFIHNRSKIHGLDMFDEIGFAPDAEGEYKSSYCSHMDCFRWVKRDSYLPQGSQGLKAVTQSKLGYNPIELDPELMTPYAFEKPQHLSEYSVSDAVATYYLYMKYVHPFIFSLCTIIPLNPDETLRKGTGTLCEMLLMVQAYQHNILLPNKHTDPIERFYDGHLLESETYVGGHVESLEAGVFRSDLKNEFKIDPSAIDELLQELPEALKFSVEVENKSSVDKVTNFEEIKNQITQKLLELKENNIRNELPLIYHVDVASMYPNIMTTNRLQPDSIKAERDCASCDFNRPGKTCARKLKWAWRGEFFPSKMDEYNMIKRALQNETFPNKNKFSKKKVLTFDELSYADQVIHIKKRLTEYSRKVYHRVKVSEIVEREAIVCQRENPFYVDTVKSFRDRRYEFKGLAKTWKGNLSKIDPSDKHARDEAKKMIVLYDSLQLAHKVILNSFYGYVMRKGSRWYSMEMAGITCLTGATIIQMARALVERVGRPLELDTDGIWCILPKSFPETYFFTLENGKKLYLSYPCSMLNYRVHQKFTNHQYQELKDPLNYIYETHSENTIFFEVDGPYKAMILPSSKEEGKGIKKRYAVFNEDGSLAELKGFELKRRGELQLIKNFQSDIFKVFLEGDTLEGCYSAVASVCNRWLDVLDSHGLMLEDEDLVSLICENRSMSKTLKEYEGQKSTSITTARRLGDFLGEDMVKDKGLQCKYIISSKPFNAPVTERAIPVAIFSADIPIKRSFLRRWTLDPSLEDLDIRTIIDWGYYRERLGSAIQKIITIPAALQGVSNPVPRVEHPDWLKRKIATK
Experiment: X-ray crystallography; incoming dNTP; Ca2+ in exonuclease A-site; Crystallization conditions not in the material; protein stored in 25 mM Tris-Ac pH 7.5, 10% glycerol, 800 mM NaAc
Details: protein: recombinant; tags: 6xHis removed with PreScission protease; 5' overhang 5 nt on template (recessed primer 3' end)

B1: KP11ddC/KT16 primer-template (dsDNA)
DNA 1: TAACCGCGTTC
DNA 2: CTCTTGAACGCGGTTA
modifications: 3'-terminal dideoxy-C on primer
Q: Does B1 bind?
A: binds
